Experimental data published in patent US20180170997A1 (NATIONAL CANCER CENTER, published 2018).

Legend:
[1] = molecular target: T1, activation-inducible tumor necrosis factor receptor (AITR) on human T cells (human, UniProt Q9Y5U5 26-241); test: flow cytometry on stimulated PBMC subsets
T1 construct: whole, on cells; also called GITR; TNFRSF18
T1 sequence (looked up): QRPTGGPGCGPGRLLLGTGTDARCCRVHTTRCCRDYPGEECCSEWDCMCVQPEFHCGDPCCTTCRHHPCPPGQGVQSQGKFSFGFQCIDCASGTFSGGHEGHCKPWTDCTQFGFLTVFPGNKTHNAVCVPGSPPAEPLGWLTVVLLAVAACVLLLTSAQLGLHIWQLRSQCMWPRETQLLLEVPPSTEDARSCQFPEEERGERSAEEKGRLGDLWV

[2] = molecular target: T2, AITR on AITR-overexpressed Jurkat cells (CD5L-AITR-TM-ECD) (human, UniProt Q9Y5U5 26-183, limits assumed); test: flow cytometry on AITR-overexpressed Jurkat cells
T2 construct: domain: transmembrane domain (TM)-ECD; also called pcDNA3.1(+)/CD5L-AITR-TM-ECD
T2 sequence (looked up): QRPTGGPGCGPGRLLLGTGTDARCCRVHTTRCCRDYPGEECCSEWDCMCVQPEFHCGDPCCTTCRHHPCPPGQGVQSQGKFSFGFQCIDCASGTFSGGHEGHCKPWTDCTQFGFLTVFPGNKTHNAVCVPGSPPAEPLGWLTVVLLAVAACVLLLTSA
Procedure: In the flow cytometry experiment, the present inventors used fluorochrome-conjugated antibodies against CD4, CDS, CD11c, IFN-γ, Foxp3, CTLA-4, CD62L, CD45RO, CD45RA (BD Bioscience), CD19, CD56, CD14, CD127, IL-4, IL-17A, GATA-3, T-bet, RORγt (ebioscience, San Diego, Calif.), and BDCA-2 (Miltenyi Biotec). […] Intracellular level of cytokines was measured after 5 hour-long pre-incubation with 50 ng/ml phorbol 12-myristate 13-acetate (PMA), 10 μg/ml ionomycin, and 10 μg/ml Brefeldin A (Sigma-Aldrich, St Louis. Mo.). FACSCalibur flow cytometer (BD Bioscience) was used for all of the flow cytometry analysis and WinMDI software (Ver. 2.9, Scripps. Institute) was used for data analysis.
For generating AITR-overexpressing cells, the gene fragment encoding AITR-transmembrane domain (TM)-ECD was inserted in-frame with CD5L sequence in a mammalian vector pcDNA3.1(⁺), i.e. pcDNA3.1(⁺)/CD5L-AITR-TM-ECD. Then pcDNA3.1(⁺)/Empty vector or pcDNA3.1(⁺)/CD5L-AITR-TM-ECD vector was transient transfected into Jurkat cells by electroporation. AITR expression on cell surface was detected by staining with biotin-conjugated anti-AITR mAb.

B1: anti-AITR mAb B32 (antibody, V domains shown)
VH: EVQLLESGGGLIQPGGSLRLSCAASGFTFSTYGMSWVRQAPGKGLEWVSGITGSAGGGSTNYADSVKGRFTISRDNSKNTLYLQMNSLRAEDTAVYYCAKGYSSNWRSAFDIWGQGTMVTVSS
VL: SYELMQPPSVSVSPGQTAGITCSGDALPKQYAYWYQQRPGQAPVLLIYKDTERPSGIPERFSGSSSGTTVTLTISGVQAEDEADYYCQSADSSGTYPVFGGGTKLTVL
notes: also called clone B32
[1]
  binding result: binds
[2]
  binding result: binds
